Substitutions are numbered along the chain they refer to.
T1: human CD11a (human) (UniProt P20701)
T1 sequence (looked up): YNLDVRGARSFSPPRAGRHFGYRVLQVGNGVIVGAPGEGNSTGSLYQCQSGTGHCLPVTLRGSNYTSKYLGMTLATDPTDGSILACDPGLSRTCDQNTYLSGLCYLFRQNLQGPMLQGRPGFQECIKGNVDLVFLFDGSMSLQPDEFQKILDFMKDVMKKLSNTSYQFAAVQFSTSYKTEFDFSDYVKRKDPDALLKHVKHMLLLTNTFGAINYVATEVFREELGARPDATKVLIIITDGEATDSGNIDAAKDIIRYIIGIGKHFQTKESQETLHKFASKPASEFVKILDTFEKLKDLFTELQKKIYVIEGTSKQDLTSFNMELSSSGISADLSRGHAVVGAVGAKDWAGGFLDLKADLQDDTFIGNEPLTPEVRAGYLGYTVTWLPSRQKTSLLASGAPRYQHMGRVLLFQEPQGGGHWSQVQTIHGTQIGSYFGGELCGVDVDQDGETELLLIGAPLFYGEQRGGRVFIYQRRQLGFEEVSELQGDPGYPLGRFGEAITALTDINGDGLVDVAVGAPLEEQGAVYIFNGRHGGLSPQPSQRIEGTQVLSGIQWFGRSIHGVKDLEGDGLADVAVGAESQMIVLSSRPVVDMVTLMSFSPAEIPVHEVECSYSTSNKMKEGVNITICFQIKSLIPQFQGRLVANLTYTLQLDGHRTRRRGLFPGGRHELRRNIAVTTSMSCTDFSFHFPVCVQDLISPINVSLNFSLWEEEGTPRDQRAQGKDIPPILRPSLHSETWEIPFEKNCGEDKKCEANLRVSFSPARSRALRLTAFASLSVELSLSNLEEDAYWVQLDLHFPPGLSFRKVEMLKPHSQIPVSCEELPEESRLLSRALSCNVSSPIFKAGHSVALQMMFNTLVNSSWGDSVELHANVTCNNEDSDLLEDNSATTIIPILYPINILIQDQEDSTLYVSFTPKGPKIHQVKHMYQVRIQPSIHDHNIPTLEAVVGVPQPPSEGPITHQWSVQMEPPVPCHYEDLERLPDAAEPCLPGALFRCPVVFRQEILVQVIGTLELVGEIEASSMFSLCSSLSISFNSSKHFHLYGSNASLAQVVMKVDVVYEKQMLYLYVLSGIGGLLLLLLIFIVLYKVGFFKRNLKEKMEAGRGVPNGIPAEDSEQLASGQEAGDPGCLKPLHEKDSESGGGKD

T2: rhesus CD11a (rhesus) (UniProt H9Z8N3)
T2 sequence: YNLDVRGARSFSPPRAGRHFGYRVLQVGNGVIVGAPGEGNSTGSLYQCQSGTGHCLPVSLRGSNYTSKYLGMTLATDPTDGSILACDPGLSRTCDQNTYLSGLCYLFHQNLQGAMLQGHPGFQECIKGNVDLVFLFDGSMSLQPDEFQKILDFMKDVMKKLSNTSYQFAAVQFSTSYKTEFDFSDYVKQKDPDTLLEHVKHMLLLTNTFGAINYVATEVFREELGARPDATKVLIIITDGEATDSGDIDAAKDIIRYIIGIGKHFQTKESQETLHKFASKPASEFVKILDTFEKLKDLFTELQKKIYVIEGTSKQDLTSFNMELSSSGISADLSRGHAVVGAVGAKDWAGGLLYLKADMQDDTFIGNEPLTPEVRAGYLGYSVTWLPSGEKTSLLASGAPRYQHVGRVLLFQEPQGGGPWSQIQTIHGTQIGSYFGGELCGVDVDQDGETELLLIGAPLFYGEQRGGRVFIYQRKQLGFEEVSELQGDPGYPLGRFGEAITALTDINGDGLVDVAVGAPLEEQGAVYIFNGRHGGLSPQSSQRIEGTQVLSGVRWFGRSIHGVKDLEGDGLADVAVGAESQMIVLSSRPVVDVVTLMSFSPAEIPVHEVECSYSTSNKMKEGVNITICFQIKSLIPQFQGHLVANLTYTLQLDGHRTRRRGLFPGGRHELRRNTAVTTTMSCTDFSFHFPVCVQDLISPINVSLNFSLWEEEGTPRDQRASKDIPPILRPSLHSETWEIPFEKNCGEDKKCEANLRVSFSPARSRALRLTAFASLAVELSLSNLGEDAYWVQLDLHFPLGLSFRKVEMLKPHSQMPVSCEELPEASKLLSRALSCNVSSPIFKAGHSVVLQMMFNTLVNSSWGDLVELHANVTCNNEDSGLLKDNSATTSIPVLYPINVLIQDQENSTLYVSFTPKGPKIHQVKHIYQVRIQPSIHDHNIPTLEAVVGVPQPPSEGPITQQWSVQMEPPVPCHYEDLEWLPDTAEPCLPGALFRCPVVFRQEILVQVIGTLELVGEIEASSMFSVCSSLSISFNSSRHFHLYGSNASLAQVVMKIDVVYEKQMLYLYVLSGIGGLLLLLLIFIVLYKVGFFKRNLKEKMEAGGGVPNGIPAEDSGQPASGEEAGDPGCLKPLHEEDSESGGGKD

B1: AspH54Asn variant IgG1 (antibody, V domains shown)
VH: EVQLVESGGGLVQPGGSLRLSCAASGYSFTGHWMNWVRQAPGKGLEWVGMIHPSNSETRYNQKFKDRFTISVDKSKNTLYLQMNSLRAEDTAVYYCARGIYFYGTTYFDYWGQGTLVTVSS
VL: DIQMTQSPSSLSASVGDRVTITCRASKTISKYLAWYQQKPGKAPKLLIYSGSTLQSGVPSRFSGSGSGTDFTLTISSLQPEDFATYYCQQHNEYPLTFGQGTKVEIK
B2: H2C9 variant IgG1 (antibody, V domains shown)
VH: B1 VH with H52A, S54A, N55A, E57N
VL: B1 VL
B3: H2C10 variant IgG1 (antibody, V domains shown)
VH: B1 VH with H52A, S54A, N55A, E57S
VL: B1 VL
B4: ThrH30Ala variant IgG1 (antibody, V domains shown)
VH: B1 VH with T30A, N55D
VL: B1 VL
B5: H2A2 variant IgG1 (antibody, V domains shown)
VH: B1 VH with S54A, N55D, S56A
VL: B1 VL
B6: H2C5 variant IgG1 (antibody, V domains shown)
VH: B1 VH with H52A, S54A, E57N
VL: B1 VL
B7: H2 variant IgG1 (antibody, V domains shown)
VH: B1 VH with H52A, S54A, N55D, S56A
VL: B1 VL
B8: GlyH31Ala variant IgG1 (antibody, V domains shown)
VH: B1 VH with G31A, N55D
VL: B1 VL
B9: H2A1 variant IgG1 (antibody, V domains shown)
VH: B1 VH with H52A, S54A, N55D
VL: B1 VL
B10: SerH53Ala variant IgG1 (antibody, V domains shown)
VH: B1 VH with S54A, N55D
VL: B1 VL
B11: AspH54Gln variant IgG1 (antibody, V domains shown)
VH: B1 VH with N55Q
VL: B1 VL
B12: GluH56Ala variant IgG1 (antibody, V domains shown)
VH: B1 VH with N55D, E57A
VL: B1 VL
B13: HisH52Ala variant IgG1 (antibody, V domains shown)
VH: B1 VH with H52A, N55D
VL: B1 VL
B14: H2C7 variant IgG1 (antibody, V domains shown)
VH: B1 VH with H52A, S54A, N55A, E57A
VL: B1 VL
B15: H2A3 variant IgG1 (antibody, V domains shown)
VH: B1 VH with H52A, N55D, S56A
VL: B1 VL

target: T1, human CD11a (human); assay: FACScan, Jurkat cells

Q: How did the Variant EC50/HulgG1 EC50 turn out when B1 was run?
A: Its Variant EC50/HulgG1 EC50 is 26.

Q: For B2, which Var.EC50/HuIgG1 EC50 is on record?
A: The Var.EC50/HuIgG1 EC50 was 34.3.

Q: Which Var.EC50/HuIgG1 EC50 does the source give for B3 here?
A: The Var.EC50/HuIgG1 EC50 was 14.2.

Q: B4 was tested. Which Var.EC50/HuIgG1 EC50 did it give?
A: Its Var.EC50/HuIgG1 EC50 is 1.7.

Q: Which Var.EC50/HuIgG1 EC50 does the source give for B5 here?
A: Its Var.EC50/HuIgG1 EC50 is 1.9.

Q: How did the Var.EC50/HuIgG1 EC50 turn out when B6 was run?
A: Its Var.EC50/HuIgG1 EC50 is 46.

Q: With B7 as the binder, how does the Var.EC50/HuIgG1 EC50 read?
A: Its Var.EC50/HuIgG1 EC50 is 14.1.

Q: With B8 as the binder, how does the Var.EC50/HuIgG1 EC50 read?
A: The Var.EC50/HuIgG1 EC50 was 1.2.

Q: Which Var.EC50/HuIgG1 EC50 does the source give for B9 here?
A: Its Var.EC50/HuIgG1 EC50 is 10.8.

Q: How did the Var.EC50/HuIgG1 EC50 turn out when B10 was run?
A: The Var.EC50/HuIgG1 EC50 was 1.8.

Q: Which Variant EC50/HulgG1 EC50 does the source give for B11 here?
A: The Variant EC50/HulgG1 EC50 was 20.

Q: B12 was tested. Which Var.EC50/HuIgG1 EC50 did it give?
A: Its Var.EC50/HuIgG1 EC50 is 4.

Q: Which Var.EC50/HuIgG1 EC50 does the source give for B13 here?
A: The Var.EC50/HuIgG1 EC50 was 1.5.

Q: B14 was tested. Which Var.EC50/HuIgG1 EC50 did it give?
A: The Var.EC50/HuIgG1 EC50 was 2.4.

Q: B15 was tested. Which Var.EC50/HuIgG1 EC50 did it give?
A: The Var.EC50/HuIgG1 EC50 was 4.6.

target: T2, rhesus CD11a (rhesus); assay: binding to rhesus peripheral blood lymphocytes

Q: B1 was tested. Which Variant EC50/HulgG1 EC50 did it give?
A: The Variant EC50/HulgG1 EC50 was 0.1.

Q: And the fold improvement in binding over HuIgG1?
A: The fold improvement in binding over HuIgG1 was 10 fold.

Q: With B2 as the binder, how does the Var.EC50/HuIgG1 EC50 read?
A: The Var.EC50/HuIgG1 EC50 was 0.22.

Q: For B3, which Var.EC50/HuIgG1 EC50 is on record?
A: Its Var.EC50/HuIgG1 EC50 is 0.22.

Q: Which Var.EC50/HuIgG1 EC50 does the source give for B4 here?
A: The Var.EC50/HuIgG1 EC50 was 1.3.

Q: With B5 as the binder, how does the Var.EC50/HuIgG1 EC50 read?
A: Its Var.EC50/HuIgG1 EC50 is 1.1.

Q: With B6 as the binder, how does the Var.EC50/HuIgG1 EC50 read?
A: The Var.EC50/HuIgG1 EC50 was 0.11.

Q: How did the Var.EC50/HuIgG1 EC50 turn out when B7 was run?
A: Its Var.EC50/HuIgG1 EC50 is 0.055.

Q: And the fold better binding than HuIgG1?
A: Its fold better binding than HuIgG1 is 18 fold.

Q: B8 was tested. Which Var.EC50/HuIgG1 EC50 did it give?
A: Its Var.EC50/HuIgG1 EC50 is 2.4.

Q: B9 was tested. Which Var.EC50/HuIgG1 EC50 did it give?
A: Its Var.EC50/HuIgG1 EC50 is 0.013.

Q: And the fold improvement in binding over HuIgG1?
A: The fold improvement in binding over HuIgG1 was 77 fold.

Q: With B10 as the binder, how does the Var.EC50/HuIgG1 EC50 read?
A: Its Var.EC50/HuIgG1 EC50 is 0.7.

Q: B11 was tested. Which Variant EC50/HulgG1 EC50 did it give?
A: The Variant EC50/HulgG1 EC50 was 4.4.

Q: How did the Var.EC50/HuIgG1 EC50 turn out when B12 was run?
A: The Var.EC50/HuIgG1 EC50 was 0.3.

Q: What about the fold improvement in binding over HuIgG1 of the same binder?
A: Its fold improvement in binding over HuIgG1 is 3 fold.

Q: For B13, which Var.EC50/HuIgG1 EC50 is on record?
A: Its Var.EC50/HuIgG1 EC50 is 0.7.

Q: B14 was tested. Which Var.EC50/HuIgG1 EC50 did it give?
A: Its Var.EC50/HuIgG1 EC50 is 1.03.

Q: With B15 as the binder, how does the Var.EC50/HuIgG1 EC50 read?
A: The Var.EC50/HuIgG1 EC50 was 1.3.
